A short description of the data set: label from the status in PepcDB records.
In the case of “MRRQTMVKAGAVACAVALLGSLSACGGSKKSTTTADGKPIVTVLVKKNANQEKMANMQWAKDLEADCDCKIEWQEVTREAWAQQKNATLASGDIADVNLNGYGAVEAYQYPGMFEDLSKDLDKLPNVKAFFKQKPDAKKMSTDSKGRIYAIADGRGKAYSGTGQHMLINKAWLDKLGLQVPTTWDELENVLKAFKTQDPNGNGQADEIPMNIKKLEGSYFTWYSPMLLLNSTGIVTGFNKGVSEYGFYAKNGVVKSFLTSDEYKEVIKYYHKLISEGLIPAEWATKDDDAYNADQISDGKTAKTGVVFGWSPSDNFGKLKDQYIAMPVPSAPGVSPDQTVWDGSSSELSPAGLSISSHAANKDAALKLANLLYSEKYSVQQFLGSFGKAITKTGEHEYTVDNDKLSQLTGDNQYPGLSELLVGWIPDEATIKGDTHADELIEVNKVYEEQRSHFDPVKDYIPDYVNMDNMDPSDATKLNTNNAEIFNTTMQKTATWMSKGGIDEEWDAYCKQLDSIGLQESTKIWQKWYDTYTK”, the protein production result is “not failed”. Consider “MRRRDPSRKMILRMSHVVRRLRPDGIVELRPRDVRVERPEWYLGAYTTFLVSGALFISTAVPAQLVAITFLGCLLGEVCFGLRALVALRRPLAEVEVLAPMRRVR”, for which the protein production result is recorded as “failed”.

Consider “MRRRWYNNGGFQTLRMLEESSSEVTSSSALGLPPAMVMSPESLASPEYGGLELWGYDDGITYSMAQSLGTCTMEQQQPQPQQQPQQTQPLPSMPLPMPPTTPKSENESMSSGREELSPASSVNGCSTDGEARRQKKGPAPRQQEELCLVCGDRASGYHYNALTCEGCKGFFRRSVTKNAVYICKFGHACEMDMYMRRKCQECRLKKCLAVGMRPECVVPENQCAMKRKEKKAQREKDKLPVSTTTVDDHMPPIMQCDPPPPEAARIHEVVPRFLNEKLMEQNRLKNVPPLTANQKSLIARLVWYQEGYEQPSEEDLKRVTQTWQSDEDDEDSDMPFRQITEMTILTVQLIVEFAKGLPGFAKISQSDQITLLKACSSEVMMLRVARRYDAATDSVLFANNQAYTRDNYRKAGMAYVIEDLLHFCRCMYSMMMDNVHYALLTAIVIFSDRPGLEQPLLVEEIQRYYLNTLRVYILNQNSASPRCAVIFGKILGILTEIRTLGMQNSNMCISLKLKNRKLPPFLEEIWDVADVATTATPVAAEAPAPLAPAPPARPPATV”, for which the protein production result is “not failed”. Next, “MRRSKYFTPNEVSLHNTINDIWVSYLGKVYDLTPLLEAYKGDVLLKPIIECAGKDISHWFDPKTKDILTHVDPLTGCIKYYTPRGRFIHIPPPCPRTDWANNFGKPWWKDNRYEVGLLSAKTRWIRIINTLTSQEQKLEVCSEESLDEILHRYLFYNSHAASYTWKLSGINLDMSKTLSENGIPEEDEFYCGSPDCNLFSPSICLYFNDDLTEL”: “failed”. Next, “MRRTPRKATAAGALMAATAFLTVGIQAVPATAKPAAPHPSPLRTGGQEAKLTPAQHSALLKSAAKKTTTTAATLGLGAKEKLVVRDVVKDNDGTLHTRYERTWAGLPVLGGDVVVHTPPASLAAGTVSSTFNNKRTIKVASTTASFTRSAAVTKALKAAKDLAAEKATTDSARKVIWAGSGAPKLAWETVIGGLQDDGTPSQLHVITDATTGKELYRYQGVKTGTGNTQYSGTVSLSTTLSGSTYQLYDTTRGGHKTYSLNNGTSGTGTLMTDADDTWGTGSGSNTQTAGADAAYGAQTTWDFYKNTFGRSGIKNDGVAAYSRVHYSTAYVNAFWDDDCFCMTYGDGTSSTHALTSLDVAGHEMSHGVTSNTAGLNYTGESGGLNEATSDIFGTGVEFYAANSSDVGDYLIGEKIDINGDGTPLRYMDEPDKDGGSADSWYSGVGNLDVHYSSGPANHMFYLLSEGSGSKTINGVTYNSPTSDGVAVAGIGRAAALQIWYKALTTYMTSSTNYAGARTAALNAATALYGASSTQYAGVANAFAGINVGSHVTPPTSGVTVTNPGSQSSTVGTAVSLQVSASSTNSGSLTYAATGLPTGLSVNSSTGVISGTPTTAGTYSTTVTVTDSTGATGTASFTWTVSSSGGGGTCASTQLLGNPGFESGNTTWTASSGVITNSSSEAAHAGSYKAWLDGYGSTHTDTLSQSVTIPSGCKASLTFYLHIDTAETTTSTQYDKLTVTAGSTTLATYSNLNAASGYTQKTFDLSSLAGTTVALKFSGVEDSSLQTSFVIDDTALTTS”: “failed”; “MRSDVVARAMRLIADGTVDRDGVSGLAAQLGYTIRQLERLLQAVVGAGPLALARAQRMQTARVLIETTNLPFGDVAFAAGFSSIRQFNDTVRLACDGTPTALRARAAARFESATASAGTVSLRLPVRAPFAFEGVFGHLAATAVPGCEEVRDGAYRRTLRLPWGNGIVSLTPAPDHVRCLLVLDDFRDLMTATARCRRLLDLDADPEAIVEALGADPDLRAVVGKAPGQRIPRTVDEAEFAVRAVLAQQVSTKAASTHAGRLVAAYGRPVHDRHGALTHTFPSIEQLAEIDPGHLAVPKARQRTINALVASLADKSLVLDAGCDWQRARGQLLALPGVGPWTAEVIAMRGLGDPDAFPASDLGLRLAAKKLGLPAQRRALTVHSARWRPWRSYATQHLWTTLEHPVNQWPPQEKIALEHHHHHH”: “failed”; “MRSKFVLFMLMSLLTGSLMANSEAQIYGYVEKATLIDQNLTLSAKLDTGAKSASLHAVNITEIEKKGIPYLRFTVPTKTGDYSFEGEYVGKVKIKVRSSETNPGLLRTTPIKRPVVLLNIKLGDKVRTIKVNLTNRKRFLYPLLLGRDAIIDFNGAVDPALTFTTKSKSPVNNEK”: “failed”. “MRSLTHIAKIEPPPVRRVTYVKHYSIQPANLEFNAEGTPVSRDFDDVYFSNDNGLEETRYVFLGGNQLEVRFPEHPHPLFVVAESGFGTGLNFLTLWQAFDQFREAHPQAQLQRLHFISFEKFPLTRADLALAHQHWPELAPWAEQLQAQWPMPLPGCHRLLLDEGRVTLDLWFGDINELTSQLDDSLNQKVDAWFLDGFAPAKNPDMWTQNLFNAMARLARPGGTLATFTSAGFVRRGLQDAGFTMQKRKGFGRKREMLCGVMEQTLPLPCSAPWFNRTGSSKREAAIIGGGIASALLSLALLRRGWQVTLYCADEAPALGASGNRQGALYPLLSKHDEALNRFFSNAFTFARRFYDQLPVKFDHDWCGVTQLGWDEKSQHKIAQMLSMDLPAELAVAVEANAVEQITGVATNCSGITYPQGGWLCPAELTRNVLELAQQQGLQIYYQYQLQNLSRKDDCWLLNFAGDQQATHSVVVLANGHQISRFSQTSTLPVYSVAGQVSHIPTTPELAELKQVLCYDGYLTPQNPANQHHCIGASYHRGSEDTAYSEDDQQQNRQRLIDCFPQAQWAKEVDVSDKEARCGVRCATRDHLPMVGNVPDYEATLVEYASLAEQKDEAVSAPVFDDLFMFAALGSRGLCSAPLCAEILAAQMSDEPIPMDASTLAALNPNRLWVRKLLKGKAVKAG”: the protein production entry is reported as “failed”. Next, “MRSQPTVSVIVPARNEAGNIAAAVERLPELGAETELIFVEGHSRDQTWETIEQTVAEYQGPLKLLACRQTGKGKADAVRLGFDKASGDILMILDADLTVQPEDLGHFYRAIASGRGEFINGSRLVYPRSRLAMPGLNTLANRTFALIFSFLLGQPLKDTLCGTKVLWKTDYDRVAAGRKYFGDFDPFGDFDLLFGAAKLGLEIVEVPVRYQERSYGSSNIAHVREGLILARMCLYAAGKLKFPLEHHHHHH”: “failed”. Consider “MRSTTSTLMLIKKTAIAVSLAVGSMVISGCDTNEVAKEISQPTIRPALTEIVSPSANAQLRFNGVVRSAQRADLAFRMSSRVISVLVDEGQQVKKGQLLAQLDPRDAQTALESARVEYKNSKAEYTRGKAIYEKSQAIAKSDLDTLTTRYQLAKNRLDEAQRQLEYTQLHAPFDGVIGKKMIDNHVQIQANSPVLTVHNVDDLEVLINIPDSVMLGDLKGSKALAQISALRNETFPLVLSTYGTQADPITQTYPVVLTFEDLRGFNVLPGMTVKVVPVYSDEQDQASLLITVPLTAVVPDNQGGQFVWVVTQENKVQKRIISAGTLVSNRIVINDGLQTGERIITAGASSLKEGMEVRPYTDTLSSQVEK”, for which the protein production result was “failed”. As for “MRTFTWRKGSLSKVNTCYVLAGGKSKRFGEDKLLYEIKGKKVIERVYETAKSVFKEVYIVAKDREKFSFLNAPVVLDEFEESASIIGLYTALKHAKEENVFVLSGDLPLMKKETVLYVLENFKEPVSVAKTEKLHTLVGVYSKKLLEKIEERIKKGDYRIWALLKDVGYNEVEIPEELRYTLLNMNTKEDLKRILAIENHY”, the entry is “not failed”.

These data come from a protein production outcome set (Wang et al. 2014).
